Values of other authors as cited in paper PMC4768738.

What was measured:
[1] = biological target: p55 (Homo sapiens) (UniProt Q00013)
[2] = biological target: ankyrin (Homo sapiens) (UniProt P16157)
Chain of UniProt P16157 (P16157 whole entry): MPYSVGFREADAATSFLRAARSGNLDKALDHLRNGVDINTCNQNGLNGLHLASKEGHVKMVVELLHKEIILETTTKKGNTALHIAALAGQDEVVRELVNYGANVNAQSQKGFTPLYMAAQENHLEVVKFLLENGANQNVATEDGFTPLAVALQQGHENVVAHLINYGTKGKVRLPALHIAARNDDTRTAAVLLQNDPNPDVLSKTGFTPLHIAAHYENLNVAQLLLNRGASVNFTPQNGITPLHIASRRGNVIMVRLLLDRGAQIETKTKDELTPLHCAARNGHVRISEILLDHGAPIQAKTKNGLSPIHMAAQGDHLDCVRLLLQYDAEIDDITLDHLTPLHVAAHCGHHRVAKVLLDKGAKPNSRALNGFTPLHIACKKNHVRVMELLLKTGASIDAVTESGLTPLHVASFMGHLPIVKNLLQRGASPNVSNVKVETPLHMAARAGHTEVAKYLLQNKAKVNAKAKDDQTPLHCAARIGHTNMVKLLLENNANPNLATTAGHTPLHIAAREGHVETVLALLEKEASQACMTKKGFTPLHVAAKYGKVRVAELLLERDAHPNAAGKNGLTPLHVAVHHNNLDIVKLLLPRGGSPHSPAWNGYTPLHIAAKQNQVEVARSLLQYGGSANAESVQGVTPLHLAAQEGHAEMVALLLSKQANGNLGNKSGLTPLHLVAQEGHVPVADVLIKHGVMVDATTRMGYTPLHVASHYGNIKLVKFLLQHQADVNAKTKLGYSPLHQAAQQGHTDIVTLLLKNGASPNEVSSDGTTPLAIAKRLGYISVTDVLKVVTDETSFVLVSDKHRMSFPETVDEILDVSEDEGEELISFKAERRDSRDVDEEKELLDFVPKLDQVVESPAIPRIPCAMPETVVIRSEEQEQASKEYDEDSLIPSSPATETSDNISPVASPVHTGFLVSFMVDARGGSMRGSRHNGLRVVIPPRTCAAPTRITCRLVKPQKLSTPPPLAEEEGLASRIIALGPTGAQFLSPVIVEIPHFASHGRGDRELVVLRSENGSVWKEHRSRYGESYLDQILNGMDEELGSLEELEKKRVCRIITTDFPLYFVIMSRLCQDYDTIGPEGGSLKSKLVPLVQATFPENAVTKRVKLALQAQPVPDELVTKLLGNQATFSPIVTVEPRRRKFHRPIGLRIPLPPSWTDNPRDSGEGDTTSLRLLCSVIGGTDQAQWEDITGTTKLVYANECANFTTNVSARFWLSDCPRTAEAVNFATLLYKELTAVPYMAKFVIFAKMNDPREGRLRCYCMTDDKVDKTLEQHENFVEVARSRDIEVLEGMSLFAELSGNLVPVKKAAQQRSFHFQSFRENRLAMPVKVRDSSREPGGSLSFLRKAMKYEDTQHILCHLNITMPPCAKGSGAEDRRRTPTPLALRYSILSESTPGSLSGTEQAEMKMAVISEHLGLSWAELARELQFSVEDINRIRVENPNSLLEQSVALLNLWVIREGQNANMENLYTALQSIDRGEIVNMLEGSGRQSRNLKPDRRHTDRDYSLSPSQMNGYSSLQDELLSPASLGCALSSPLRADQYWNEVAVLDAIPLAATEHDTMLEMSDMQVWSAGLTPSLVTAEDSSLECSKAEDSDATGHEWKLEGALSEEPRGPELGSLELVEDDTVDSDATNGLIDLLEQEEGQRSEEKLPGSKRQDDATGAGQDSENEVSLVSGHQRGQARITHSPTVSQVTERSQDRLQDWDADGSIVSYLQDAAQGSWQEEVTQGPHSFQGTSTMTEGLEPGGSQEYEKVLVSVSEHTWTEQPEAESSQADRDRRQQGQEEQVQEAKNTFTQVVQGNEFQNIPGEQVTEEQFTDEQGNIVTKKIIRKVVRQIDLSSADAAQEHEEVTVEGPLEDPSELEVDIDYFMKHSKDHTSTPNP

Chain of UniProt Q00013 (Q00013 2-466): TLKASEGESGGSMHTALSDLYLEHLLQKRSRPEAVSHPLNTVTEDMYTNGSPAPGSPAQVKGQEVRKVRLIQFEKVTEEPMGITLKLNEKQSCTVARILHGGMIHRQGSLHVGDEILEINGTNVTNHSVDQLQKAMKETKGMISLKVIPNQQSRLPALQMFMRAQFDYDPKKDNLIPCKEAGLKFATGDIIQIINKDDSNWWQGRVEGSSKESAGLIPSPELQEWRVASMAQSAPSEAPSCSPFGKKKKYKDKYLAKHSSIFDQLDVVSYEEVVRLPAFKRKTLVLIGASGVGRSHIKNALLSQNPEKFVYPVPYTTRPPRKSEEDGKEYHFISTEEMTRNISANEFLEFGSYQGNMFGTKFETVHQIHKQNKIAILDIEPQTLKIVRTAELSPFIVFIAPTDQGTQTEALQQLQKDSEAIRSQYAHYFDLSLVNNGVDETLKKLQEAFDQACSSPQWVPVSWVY

Kd [1] [nM] | Kd [2] [nM] | Substance
100 | – | protein 4.1R (from UniProt P11171)
– | 100 | protein 4.2 (from UniProt P16452)
